Laboratory results from PMC9157509.

Target: AB variant of cytochrome cb562 (forms the disulfide-linked dimer (AB)2) (UniProt P0ABE7)
Assay: solution small-angle X-ray scattering

stoichiometry N: 2
Substance: AB variant of cytochrome cb562 (forms the disulfide-linked dimer (AB)2) (from UniProt P0ABE7 23-128)
